experiment: yeast display, Sf9 membrane polyspecificity reagent, FACS + sequencing; frameworks hold sequencing errors
How it was run: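 A nanobody's polyreactivity label depends on the gate it was sorted from. Yeast display cells were stained with 10% biotinylated, detergent-solubilized Sf9 membrane reagent for 1 hour at 4 °C, enriched on streptavidin microbeads and sorted by FACS. The low and high (top ~1%) gates were set on anti-HA fluorescence for expression and streptavidin fluorescence for reagent binding.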

Sequence | polyreactivity (PSR sort gate)
QVQLVESGGGLVHAGGSLSLSCAASGRTFRQYAMGWYRQAHGKERELVAAISKGGGSTYYADSEKGRFTISRDNAKNTVYLQMNSLKPEVKAVYYCNAPGYVLKGYDYWGQGTQVTVSS | high polyreactivity
QVQLVESGGGLVQAGGSLRLSCAASGFIFKRYAMGWYRQAPGKERELVAAITSGGSTHYADSVKGRFTISRDNAKNTVYLQMNSLKPEDTAVYYCAAVPRVNWSRYVYFWYDYWGQGTQVTVSS | high polyreactivity
QVQLVESGGGLVQAGGSLLLSCAASGRTFYYNDMGWYRQAPGKERELVASISYGGSTYYADSVKGRFTISRDNAKNTVYLQMNSLKPEDTAVYYCATVDWRWRYARRPRYDYWGQGTQVTVSS | high polyreactivity
QVQLVESGGGLVQAGGSLRLSCAASGRIFSYYTMGWYRQAPGKERELVAAITSGDSTNYADSVKGRFTISRDNAKNTVYLQMNSLKPEDNAVYYCNARYSWWRSRVGSSHRPDGYWGQGTQVTVSS | high polyreactivity
QVQLVESGGGLVQEGGSLRLSCAASGITFLQYAMGWYRQAPGKERELVAVISRGSRTYYADSVKGRFTISRDNAKNTVYLQMNCLQPDDTAVYYCAAVRGLALGYDYWGQGTQVTVSS | high polyreactivity
QVQLVESGGGLVQAGGSLRLSCAASGFTFPVYAMGWYRQAPGKERELVAAISRRGGRTYYADSVKGRFTISRDNAKNTVYLQMNSLKPEDTAVYYCAAQSVPYAYRLASYDYWGQGTQVTVSS | high polyreactivity
QVQLEESGGGLGQAGGSLRLSCAASGSTFTVNGKGWYRQPPGKERELVASITWSGGSTYYADSVKGRFTLSRDNAKYTVYLQMNSLKPEDTAVYYCAADEKLYITGYDYWGQGTQVTVSS | low polyreactivity
QVQLVESGGGLVQAGGSLRLSCAASGSTLATYTMGWYRLAPGTVRELVGAISFGGSTYYADSVKGRFTISRDNAKNTVYLQMNSLKPVDTAVYYCAVDGDSYWGAYYYSDGYWGQGTQVTVSS | low polyreactivity
QVQLVESGGGLVQAGGSLRLSCAASGRTFGQHAMGWYRQAPGKDRELVASIRSGGITDYADSVKGRFTISRDNAKNTVYLQMNSLKPEDTAVYYCNAEGVWWSTRYDSWGQGTQVTVSS | low polyreactivity
QVQLVESGGGLVQAGGSLRLSCAASGSTFYVYAMGWYRQAPGKERELVASINSGGITNYADSVKGRFTISRDNAKNTVYLQMNSLKPEDTAVYYCAARSYKTGRYPQRNKYYYWGQGTQVTVSS | high polyreactivity
QVQLVESGGGLVQAGGSLRLSCAASGYIFYTYAMGWYRQAPGKERELVAGITGSGGSTYYADSVKGRFTISRDNAKNTVYLQMNSLKPEDTAVYYCANDIYQIGYRRYDSWGQGTQVTVSS | low polyreactivity
QVQLVESGGGLVQAGGSLRLSCAASGLIFYNYAMGWYRQAPGKERELVAAISRSGGRTYYADSVKGRFTISRDNAKNTVYLQMNSLKPEDTAVYYCNAVHVSIEGYYWGQGTQVTVSS | high polyreactivity
QVQLVESGGGLVQAGGSLRLSCAASGRTFFVNTMGWSRQAPGKERELVAAISDSGGSTYADSVKGRFTISRDNAKNTVNLQKNSLKPEDTAVYYCAARRRYPQRFGFDYWGQGTQVTVSS | low polyreactivity
QVQLVESGGGLVQAGGSLRLSCAASGRIFPQYAMGWSRQAPGKERELVAGITSVGSTYYADSVKGRFTISRDNAKNTVYLQMNSLKPEDTAVYYCAAVPSRYVRANRRTYRYYYWGQGTQVTVSS | high polyreactivity
QVQLVESGGGLVQAGGSLRLSCAASGFIFRAYTKGWYRQAPGKERELVAAITSSGGRTNYADSVKGRFTISRDNAKNTVYLQMNSLKPEDTAVYYCATVYAKWKQFDYWGQGTQVTVSS | high polyreactivity
QVQLVESGGGLVQAGGSLRLSCAASGRIFRWNAMGWYRQAPGKERELVAAISRSGGSTYYADSVKRRFTISRDNAKNTVYLQMNSLKPEDTAVYYCNTRFSTFTAPGYYYWGQGTQVTVSS | high polyreactivity
QVQHVESGGGLVQAGGSLRLSSAASGRIFKRNALGWYRQAPGKEREMVATISGSGGSTYYADSVKGRFTISRDNAKNTVYLQMNSLNPEDTAVYYCAAGYKSYWRLSSPKMDYWGQGTQVTVSS | high polyreactivity
QVQLVESGGGLVQAGGSLRLSCAATGFIFTDNVMGWYRQAPGKERELVAAISRRGGSTYYADSVKGRFTISRDNAKNTVYLQMNSLKPEDTAVYYCNVARQSYLLDYWGQGSQVTVSS | high polyreactivity
QVQLVESGGGLVQAGGRLRLSCAASGRTFFRYVMGWYRQAPGKERELVAAISRSGGSTYYADSVKGRFTISRDNAKNTVYLQMNSLKPEATAVFYCNTVARSTVVPTEFDYWGQGTQVTVSS | high polyreactivity
QVQLVESGGGLVQAGGSLRLSCAASGRIFYPNVMGWYRQAPGKERELVAAISASGGRTYYADSVKGRFTISRDNAKNTVYLQMNSLKPEDTAVYYCAADTVPSTRSWDTRYWEYEYWGQGTQVTVSS | low polyreactivity
QVQLVESGGGLVQAGGSLRLSCAASGSIFQPNAMGWYRQAPGKERELVASIRGRGGDTYYADSVKGRFTISRDTAKNTVYLQMNSLKPEDTAVYYCAADYRWGQGTQVTVSS | low polyreactivity
QVPLVESGVGLVQAGGSLRLSCAASGSTFTIYAMGWYREAPGKERELVAAITWNGGSTYYADSVKGRFTISRDNAKKTVYLQMNSLKPEDTAVYYCADDYYWYWDLYDYWGQGTQVTVSS | high polyreactivity

Sequence | polyreactivity (PSR sort gate)
QVQLVESGGGLVQAGGSLRLSCAASGSTFARYAMGWYRQAPGKERELVAVITQSGSSTYYADSVKGRFTISRDNAKNTVYLQMNSLKPEDTAVYYCAAVGIDYTRYGRYWYSYDYWGQGTQVTVSS | high polyreactivity
QVQLQESGGGLVQAGGSLRLSCEASGSIYYPRTMGRSRQAPGKELEFVAGSGVGGTTYYADSVKGRFTISRDNAKNTVYLQMNSLIPEDDAVYYCAVAAYYDKYYVYWGQGTQVTVSC | low polyreactivity
QVQHVESGGGLVHAGGSLRLSCAASGRIFGGYAMGWYRQPPGKDREFVATISRSGSSTYYADSVKGRFTISRDNAKNTVYLQMNSLKPEDTAVYYCAAVIRRPNQWYWWTNSDYWGQGTQVTVSS | high polyreactivity
QVQLLESGGGLVQAGGSIRLSCSASGRTFARYVMGWYRQAPGKERELVASISNSGGSTYYSDSVKGRFTISRDNAQNTVYLQMNSLKPEDTEVYYCARRYYYYTTYRYDYWGQGTQVTVSS | high polyreactivity
QVQLVDSGGGLVQAGGSLRLSCAASGYTFPSKTMGWYRQAPGKERELVAAISGGGRTYYADSVKGRFTISRDNAKNTVYLQMNCLKPEDSAVYYCAKDSWYTQNRYNYWGQGTQVNVSS | low polyreactivity
QVQLVESGGGLVQAGGSLRLSCAASGSTLVYNDMGWYRQAPGKEREFVAAIRSNDGSTYYADSVKGRFTISRDNAKNTVYLQMNSLKAEDTAVYYCNKDVWDGYDWPEFDYWGQGTQVTVSS | low polyreactivity
QVQLVESGGGLVQAGGSLRLSCAASGNTFWPYAMGWYRQAPGKERELVAAISWRGSRTYYADSVKGRFTISRDNAKNTVYLQMNSLKPEDTAVYYCAADYKYVGSEYGYWGQGTQVNVSS | low polyreactivity
QVQLVESGGGLVQEGGSLRLSCAASGRTFGVYAMGWYRQAPGKESTYYADSVKGRFTISRDNAKNTVYLQMNSQKQEDTAVYYCAADEWYYIDPSDDYWGQGSQVTVSS | low polyreactivity
QVQLVESGGGLVQAGGSLRLSCAASGSTFWTNAMGWYRQAPGKERELVATITYSTGTYADSVKGRFTISRDNAKNTVYLQMNSLKPEDTAVYYCAADFWYRTVYGYFGYVYWGQGTQVTVSS | low polyreactivity
QVQLVESGVGLVQAGGSLRLSCAASGIIFYDYVMGWYRPAPGKEWELVAAISRSGGSTYYADSVKGRFTISRDNAKNTVYLQMNSLKPEDTAVYYCAADTVVTEMEYCGQGTQVTVSS | high polyreactivity
QVQLVESGGGLVQAGGSLRLSCAASGSTFAGNTMGWSRQAPGKERELVAAITWNGGRTRYADSVKGRFTISRDNAKNTVYLQMNSLKPEDTAVYYCNAGPWYENMDYWGQGTQVTVSS | high polyreactivity
QVQLVESGGGLVQAGGSLRLSCAASGSIFILNAMGWYRQAPGKERELVAAISSSGGSTYYADSVMGRFTISRDNAKYTDYLQMNSLKPEDSAVYYCAAERNYYFLFPYDSWGQGTQVTVSS | high polyreactivity
QVQLVESGGGLVQAGGSLRLSCAASVLIFEAYAMGWYRQAPAKERELVATINKSGGSTYYADSVKGRFTISRDNAKNTVYLQMNSLKPEDTAVYFCAAFFLLPSPWPSYWCWNGDYWGQRTQVTVSS | low polyreactivity
QVQLLESGGGLVQAGGTLRLSCAASGYTFTNNAMGWYRQAPGKERELVAGITRGGSTNYADSVKGRFTISRDNAKNTVSLQMNSLKPEDTAVYYWAADLRPNSQNGLLEDEMDYWGQGTQVTVSS | low polyreactivity
QVQLVESGGGLVQAGGSLRLSCAASGRIFVVYAMGWYRQAPGKERELVAAITYGGGSTHYADSVKGRFTISRDNAKNTVYLQMNSLKPEDTAVYYCAADLFYHSYGYEYWGQGTQVTVSS | low polyreactivity
QVQLVESGGGLVHAGGSLRLSCAASGSIFGDYAMGWYRQAPGKERELVAAITRRGSTYYADSVKGRFTISRDNAKNTVYLQMNSLIPEDTAVFYCAKDVYPGRAGRPGIPYPYDYWGQGTQVTVSS | low polyreactivity
QVQLLESGGGLVQAGGSLRLSCAASGSIFGYYAMGWYRQAPGKERELVAAISVNGGRTYYADSVKWRFTISRDIAKNTVYLQMNMLKPEDTAVSYCAAELVDFITFRGDFYYWGQGTEVTVSS | high polyreactivity
QVQLVESGGGLFQAGGSLRLSCAASGSIIRKYAMGWSIQAPGKERELVAAISRRTGNTYYADSVKGRFTISRDNAKNTVYLQMKSLKPEDTAVYYCAADYYSSSSWSEVDSWGQGTQVTVSS | high polyreactivity
QVQLVESGGGLVQAGGSLRLSCAASGRTSRYALGWYRQAPGKERELVAAISRNGGTTSYADSVKGRFTISRDNAKNTVYLQMNSLKPEDTAVYYCNAYSAFVPPTRGYYWGQGTQVTVSS | high polyreactivity
QVQLVESGGGLVQAGGSLRLSCADSGFIFWVYAMGWYRQAPGKERELVAAITSGGGSTYYADSVKGRFTISRDNAKNTVYLQMNSLKPEDTAVYYCATSLYTDNSWENYWGQGTQVTVSS | high polyreactivity
QVQLVESGGGLVQAGGSLRLSCAASGSTFTWYAMGWSRQAPGKERELVADISYGGGSTYYADSVKGRFTISRDNAKNTVYLQMNSLKPEDTAVYYCAAESIPYYRYDYWGQGTQVTVSS | low polyreactivity
